Results taken from publication PMC6152455.

Assays:
[1] = molecular target: Human CD16a/FcγRIIIa 158F (human) (UniProt P08637); experiment: SPR
[2] = molecular target: Human CD16a/FcγRIIIa 158V (human); experiment: SPR
Chain of Human CD16a/FcγRIIIa 158V (human) (P08637 17-208): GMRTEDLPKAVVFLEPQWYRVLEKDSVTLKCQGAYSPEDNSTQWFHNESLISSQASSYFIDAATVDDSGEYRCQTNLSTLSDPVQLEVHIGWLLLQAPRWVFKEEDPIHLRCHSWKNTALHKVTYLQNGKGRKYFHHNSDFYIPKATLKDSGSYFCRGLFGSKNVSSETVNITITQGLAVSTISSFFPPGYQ

Substance | Kd [1] | Kd [2]
P-mab (in-house made pertuzumab biosimilar) (antibody) | 2710 nM | 818 nM
T-mab (in-house made trastuzumab biosimilar) (antibody) | 1630 nM | 311 nM
